Test results published in PMC2526197.

Tests used:
[1] = biological target: CXCL8 (human)
[2] = biological target: Evasin-3 (HEK) (Rhipicephalus sanguineus) (UniProt P0C8E8); assay: SPR
Sequence of Evasin-3 (HEK) (Rhipicephalus sanguineus) (P0C8E8 21-86): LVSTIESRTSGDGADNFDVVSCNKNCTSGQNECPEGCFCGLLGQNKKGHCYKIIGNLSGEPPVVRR

Sequence of Evasin-3 (E. coli) (P0C8E8 21-86): as above

Row | IC50 of inhibition of CXCL8-induced chemotaxis of neutrophils in vitro [1] | Kd [2] | Substance
1 | 3.35 nM |  | Evasin-3 (E. coli) (from UniProt P0C8E8 21-86) (natural protein)
2 |  | 0.7 nM | CXCL8 (ligand)
